Test results reported in US20100221257A1 (AstraZeneca / MedImmune, published 2010).

Tests used:
[1] = target: T1, human IL-1R1, endogenous on human cells (HeLa cells; whole blood) (human, UniProt P14778 18-569); assay: cell-based or functional assay
T1 sequence (looked up): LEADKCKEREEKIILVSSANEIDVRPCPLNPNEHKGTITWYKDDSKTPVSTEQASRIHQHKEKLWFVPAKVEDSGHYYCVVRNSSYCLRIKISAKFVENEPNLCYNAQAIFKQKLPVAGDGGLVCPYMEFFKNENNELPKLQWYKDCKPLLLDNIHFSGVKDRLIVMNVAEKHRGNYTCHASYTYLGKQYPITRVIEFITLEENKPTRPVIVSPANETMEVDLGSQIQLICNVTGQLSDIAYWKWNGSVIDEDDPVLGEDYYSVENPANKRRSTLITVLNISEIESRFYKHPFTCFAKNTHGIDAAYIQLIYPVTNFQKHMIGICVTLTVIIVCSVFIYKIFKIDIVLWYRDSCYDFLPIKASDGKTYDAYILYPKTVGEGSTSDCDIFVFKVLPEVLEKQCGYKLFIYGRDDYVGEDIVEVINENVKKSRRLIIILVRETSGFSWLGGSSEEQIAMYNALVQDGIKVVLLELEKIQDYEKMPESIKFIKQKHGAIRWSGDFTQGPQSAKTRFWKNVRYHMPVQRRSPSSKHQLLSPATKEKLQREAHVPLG

[2] = target: T2, human recombinant IL-1R6/IL1 R rp2/Fc (human, UniProt Q9HB29 20-335, limits assumed); assay: DELFIA epitope competition; no inhibition of biotinylated huIL-1RFc binding to the adsorbed IgG
T2 construct: Bought; also called Human IL1R6Fc; not shown: Fc of the bought fusion protein, not described
T2 sequence (looked up): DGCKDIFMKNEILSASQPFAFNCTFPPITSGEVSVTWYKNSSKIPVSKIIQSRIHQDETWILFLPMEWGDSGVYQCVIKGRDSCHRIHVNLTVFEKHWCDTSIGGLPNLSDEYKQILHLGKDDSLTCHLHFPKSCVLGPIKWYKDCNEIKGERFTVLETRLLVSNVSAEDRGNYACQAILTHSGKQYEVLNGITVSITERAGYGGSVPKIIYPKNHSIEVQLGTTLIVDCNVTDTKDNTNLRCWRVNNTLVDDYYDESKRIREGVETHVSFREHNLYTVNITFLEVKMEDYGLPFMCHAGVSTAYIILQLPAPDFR
Protocol: (§1) Titrations of non biotinylated purified human recombinant IL1sRII (R&D Systems), human recombinant IL-1R6/IL1 R rpt/Fc (R&D Systems), human recombinant IL18R alpha/IL-1 R5/Fc (R&D systems) and recombinant human IL-1 R4 (ST2)/Fc (R&D systems) were tested in each assay to establish the potency for each structurally related family member, as measured by IC₅₀ values in the assay.
(§2) Purified IgG were adsorbed onto 96-well Maxisorp microtitre plates (Nunc) in PBS at a concentration which gave a significant signal when biotinylated human HIS IL1RFc was added at approximately its estimated KD for that particular IgG. Excess IgG was washed away with PBS-Tween (0.1% v/v) and the wells were blocked with non-fat dried milk in PBS (3% w/v) for 1 h. […] Non-biotinylated human HIS IL1RFc was included as a positive control. 25 μl of this dilution series was added to the blocked IgG assay plate.
(§3) 25 μl of 1.4 nM biotinylated human HIS IL1RFc was added to the assay plate. The plate was then sealed and incubated at room temperature for 2 h. Unbound antigen was removed by washing with PBS-Tween (0.1% v/v), while the remaining biotinylated human IL1RFc was detected by streptavidin-Europium3+ conjugate (DELFIA® detection, PerkinElmer). Time-resolved fluorescence was measured at 620 nm on an EnVision plate reader (PerkinElmer). Fluorescence data was plotted as europium counts. IC₅₀ values were determined using GraphPad Prism software by curve fitting using a four-parameter logistic equation (Equation 3).

[3] = target: T3, human recombinant IL18R alpha/IL-1 R5/Fc (human, UniProt Q13478 19-329, limits assumed); assay: as above
T3 construct: Bought; also called IL18R alpha Fc; not shown: Fc of the bought fusion protein, not described
T3 sequence (looked up): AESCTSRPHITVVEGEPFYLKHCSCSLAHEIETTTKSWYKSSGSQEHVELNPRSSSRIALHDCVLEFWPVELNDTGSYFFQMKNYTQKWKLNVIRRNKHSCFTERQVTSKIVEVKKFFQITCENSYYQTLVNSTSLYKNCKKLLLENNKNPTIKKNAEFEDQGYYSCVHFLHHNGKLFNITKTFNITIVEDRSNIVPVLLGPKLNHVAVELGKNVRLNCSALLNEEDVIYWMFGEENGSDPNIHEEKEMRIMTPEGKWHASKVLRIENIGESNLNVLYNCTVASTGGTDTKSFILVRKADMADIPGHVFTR
Protocol: as §1, §2, §3

[4] = target: T4, human recombinant IL1sRII (human, UniProt P27930 14-343); assay: as above
T4 construct: also called Human IL1sRII
T4 sequence (looked up): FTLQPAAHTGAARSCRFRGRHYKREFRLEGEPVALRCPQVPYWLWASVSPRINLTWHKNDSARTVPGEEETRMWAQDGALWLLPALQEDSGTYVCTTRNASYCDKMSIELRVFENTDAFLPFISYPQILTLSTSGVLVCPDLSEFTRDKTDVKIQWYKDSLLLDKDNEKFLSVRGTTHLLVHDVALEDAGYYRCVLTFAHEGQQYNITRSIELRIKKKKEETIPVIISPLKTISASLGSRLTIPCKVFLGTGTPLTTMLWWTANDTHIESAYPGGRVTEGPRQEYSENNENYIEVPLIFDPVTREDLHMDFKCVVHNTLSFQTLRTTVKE
Protocol: as §1, §2, §3

[5] = target: T1, human IL-1R1, endogenous on human cells …; assay: cell-based or functional assay; remark: listed apart in the source

Row | Binder | IC50, inhibition of IL-1β induced IL-6 production in human whole blood, donor 1 [1] [nM] | IC50, inhibition of IL-1β induced IL-6 production in human whole blood, donor 2 [1] [nM] | IC50, inhibition of IL-1β induced IL-6 production in human whole blood, donor 3 [1] [nM] | IC50, inhibition of IL-1β induced IL-6 production in human whole blood, donor 4 [1] [nM] | IC50, inhibition of IL-1β induced IL-6 production in human whole blood, donor 5 [1] [nM] | IC50, inhibition of IL-1β induced IL-6 production in human whole blood, donor 6 [1] [nM] | binding result [2] | binding result [3] | binding result [4] | mean IC50 for the 6 donors, inhibition of IL-1β induced IL-6 production in human whole blood [5] [nM]
1 | Antibody 6GL IgG2 (antibody, V domains shown, Germlined IgG2, lambda light chain; also called Antibody 6 IgG2; 28PL GL) VH: not shown VL: QSVLTQPPSVSGAPGQRVTISCTGSSSNIGAGYDVHWYQQLPGTAPKLLIYGDTHRPSGVPDRFSGSKSGTSASLAITGLQAEDEADYYCQSYDTVRLHHVFGGGTKLTVL | 0.091 | 0.295 | 0.116 | 0.309 | 0.167 | 0.321 | no binding | no binding | no binding | 0.229
2 | Antibody 10GL IgG2 (antibody, V domains shown, Germlined IgG2, lambda light chain) VH: not shown VL: QSVLTQPPSVSGAPGQRVTISCTGSSSNIGAGYDVHWYQQLPGTAPKLLIYGDTHRPSGVPDRFSGSKSGTSASLAITGLQAEDEADYYCQSYDTRADDAHFGGGTKLTVL |  |  |  |  |  |  | no binding | no binding | no binding | 
3 | Antibody 8GL IgG2 (antibody, V domains shown, Germlined IgG2, lambda light chain) VH: not shown VL: QSVLTQPPSVSGAPGQRVTISCTGSSSNIGAGYDVHWYQQLPGTAPKLLIYGDTHRPSGVPDRFSGSKSGTSASLAITGLQAEDEADYYCQSYDTHLVAHVFGGGTKLTVL |  |  |  |  |  |  | no binding | no binding | no binding | 
